Target: RNF216, Q9NWF9-3
Sequence (Q9NWF9 379-866): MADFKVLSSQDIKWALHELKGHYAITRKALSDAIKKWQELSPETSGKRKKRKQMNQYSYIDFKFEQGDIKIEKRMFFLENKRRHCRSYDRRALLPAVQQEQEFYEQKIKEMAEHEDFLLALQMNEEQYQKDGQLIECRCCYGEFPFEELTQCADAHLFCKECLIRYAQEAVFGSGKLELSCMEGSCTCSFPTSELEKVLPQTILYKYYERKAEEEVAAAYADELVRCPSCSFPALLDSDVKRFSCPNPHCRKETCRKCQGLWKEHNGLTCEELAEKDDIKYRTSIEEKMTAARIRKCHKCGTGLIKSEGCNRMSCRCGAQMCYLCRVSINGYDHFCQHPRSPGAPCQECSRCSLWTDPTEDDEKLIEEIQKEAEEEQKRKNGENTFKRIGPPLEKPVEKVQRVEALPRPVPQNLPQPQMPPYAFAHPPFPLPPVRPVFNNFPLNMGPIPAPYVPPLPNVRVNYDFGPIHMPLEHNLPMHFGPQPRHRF

In the case of “Virion infectivity factor (Human immunodeficiency virus type 1 group M subtype B (isolate NY5) (HIV-1)), P12504 Q105A;L106A;I107A”, the “effect of a mutation on the interaction” value is reported as “disrupting interaction”.

From IntAct's records for PubMed 12600646
